{"source": "paper PMC7327521", "target": "(pY1-CTD)2, FAM-labelled tyrosine-phosphorylated CTD diheptad", "experiment": "fluorescence polarisation", "data": [{"substance": "Spt6-tSH2 R1281E/S1284A/R1285E (from UniProt Q6FLB1 1250-1444) (domain or fragment)", "values": [{"measurement": "Kd", "value": 48.3, "unit": "µM"}]}]}
